Data on two molecules can be found in publication PMC6863750 (Nature cell biology, 2018).

The target of assay [1] is purified recombinant Rac1 Q61L (analyte in SPR) (UniProt P63000 1-192, Q61L). Briefly: SPR. On the technique in general: SPR reads the build-up and loss of mass on a sensor chip optically.
Assay [2] has as its target His-Rac1 Q61L (immobilised in SPR) (UniProt P63000 1-192, Q61L). The assay is described as follows: SPR.

The Kd is a measure of binding affinity in units of concentration.

B1: GST-CYRI-B RBD (domain or fragment)
chain: ESEKEIYNQVNVVLKDAEGILEDLQSYRGAGHEIREAIQHPADEKLQEKAWGAVVPLVGKLKKFYEFSQRLEAALRGLLGALTSTPYSPTQHLEREQALAKQFAEILHFTLRFDELKMTNPAIQNDFSYYRRTLSRMRINNVPAEGENEVNNELANRMSLFYAEATPMLKTLSDATTKFVSENKNLPIENTTDCLSTMASVCRVMLE
As to B1, the Kd in assay [1] amounted to 27 µM.

B2: CYRI-B RBD (analyte in SPR) (domain or fragment)
chain: B1 chain
As to B2, in assay [2], binding was put at a Kd of 22 µM.
